# Laboratory results published in publication PMC3212630.
# Where two headings read alike, the source gives them in different places.
# Legend:
# [1] = biological target: T1, rCsrABb (carbon storage regulator A) (Borrelia burgdorferi, UniProt O51202 1-81); assay: EMSA
# T1 sequence: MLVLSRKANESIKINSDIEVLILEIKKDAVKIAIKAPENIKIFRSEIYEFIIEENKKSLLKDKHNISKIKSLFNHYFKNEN
# [2] = biological target: T1, rCsrABb (carbon storage regulator A); assay: EMSA; remark: listed apart in the source
Binder,binding result [1],binding result [2]
"GCAAAAGGAUUUGCCAAAGUCAGAAUUUAAAUUUUAUCAUGGAGGAAUGA (ssRNA) [flaB leader probe, wild type (P10, flaBp)]",binds,–
"GCAAAAAAAUUUGCCAAAGUCAGAAUUUAAAUUUUAUCAUAAAGGAAUGA (ssRNA) [flaB leader probe, BS1 BS2 mutated (P13)]",–,no binding
